Reference: paper PMC8623809

Columns and labels:
[1] = molecular target: bovine submaxillary mucin (BSM), Sigma Type I-S; assay: Intrinsic tryptophan fluorescence quenching (excitation 280 nm, emission maximum 326 nm), Stern-Volmer analysis; conditions: 100 mM PBS (composition not further stated), 100 mM PBS adjusted with HCl to pH 7, 5 and 3 (same buffer at all pH values)
[2] = molecular target: porcine gastric mucin (PGM), Sigma Type III; assay: as above; conditions: 100 mM PBS (composition not further stated), 100 mM PBS adjusted with HCl to pH 7, 5 and 3 (same buffer at all pH values)

Ksv (Stern-Volmer constant, static quenching) (not printed (uM^-1 inferred)) ([1]; pH 3): 0.19 | Ksv (Stern-Volmer constant, static quenching) (not printed (uM^-1 inferred)) ([1]; pH 5): 0.15 | Ksv (Stern-Volmer constant, static quenching) (not printed (uM^-1 inferred)) ([1]; pH 7): 0.23 | Ksv (Stern-Volmer constant, static quenching) (not printed (uM^-1 inferred)) ([2]; pH 3): 1.25 | Ksv (Stern-Volmer constant, static quenching) (not printed (uM^-1 inferred)) ([2]; pH 5): 0.92 | Ksv (Stern-Volmer constant, static quenching) (not printed (uM^-1 inferred)) ([2]; pH 7): 1.08
Substance: beta-lactoglobulin (BLG)
